Measurements from patent US20130209454A1 (CALIFORNIA INSTITUTE OF TECHNOLOGY, published 2013).

Key:
Experiment in all cases: cell-based or functional assay
[1] = biological target: HIV-1 Env of strain QH0692.42 (HIV-1)
[2] = biological target: HIV-1 Env of strain AC10.0.29 (HIV-1)
[3] = biological target: HIV-1 Env of strain SC422661.8 (HIV-1)
[4] = biological target: HIV-1 Env of strain TRO.11 (HIV-1)
[5] = biological target: HIV-1 Env of strain T257-31 (HIV-1)
[6] = biological target: HIV-1 Env of strain CAP45.2.00.G3 (HIV-1)
[7] = biological target: HIV-1 Env of strain ZM214M.PL15 (HIV-1)
[8] = biological target: HIV-1 Env of strain X1254_c3 (HIV-1)
[9] = biological target: HIV-1 Env of strain 1056_10_TA11_1826 (HIV-1)
[10] = biological target: HIV-1 Env of strain CAAN5342.A2 (HIV-1)
[11] = biological target: HIV-1 Env of strain ZM247v1(Rev-) (HIV-1)
[12] = biological target: HIV-1 Env of strain Q259.d2.17 (HIV-1)
[13] = biological target: HIV-1 Env of strain WEAU_d15_410_787 (HIV-1)
[14] = biological target: HIV-1 Env of strain 6535.3 (HIV-1)
[15] = biological target: HIV-1 Env of strain REJO4541.67 (HIV-1)
[16] = biological target: HIV-1 Env of strain 3016.v5.c45 (HIV-1)
[17] = biological target: HIV-1 Env of strain C2101.c01 (HIV-1)
[18] = biological target: HIV-1 strain TRO.11 envelope (gp120) (HIV-1)
[19] = biological target: HIV-1 strain T257-31 envelope (gp120) (HIV-1)
[20] = biological target: HIV-1 strain ZM214M.PL15 envelope (gp120) (HIV-1)
[21] = biological target: HIV-1 strain QH0692.42 envelope (gp120) (HIV-1)
[22] = biological target: HIV-1 strain CAP45.2.00.G3 envelope (gp120) (HIV-1)
[23] = biological target: HIV-1 strain AC10.0.29 envelope (gp120) (HIV-1)
[24] = biological target: HIV-1 strain SC422661.8 envelope (gp120) (HIV-1)

B1: NIH45-46 IgG (antibody, V domains shown)
VH: QVRLSQSGGQMKKPGESMRLSCRASGYEFLNCPINWIRLAPGRRPEWMGWLKPRGGAVNYARKFQGRVTMTRDVYSDTAFLELRSLTSDDTAVYFCTRGKYCTARDYYNWDFEHWGRGAPVTVSS
VL: EIVLTQSPATLSLSPGETAIISCRTSQSGSLAWYQQRPGQAPRLVIYSGSTRAAGIPDRFSGSRWGADYNLSISNLESGDFGVYYCQQYEFFGQGTKVQVDI
neutralization IC50 [1]: 0.7 µg/mL | neutralization IC50 [2]: 0.9 µg/mL | neutralization IC50 [3]: 0.05 µg/mL | neutralization IC50 [4]: 1.9 µg/mL | neutralization IC50 [5]: 0.5 µg/mL | neutralization IC50 [6]: > 50 µg/mL | neutralization IC50 [7]: 0.3 µg/mL | neutralization IC50 [8]: 0.032 µg/mL | neutralization IC50 [9]: 0.094 µg/mL | neutralization IC50 [10]: 0.15 µg/mL | neutralization IC50 [11]: 2.94 µg/mL | neutralization IC50 [12]: 0.043 µg/mL | neutralization IC50 [13]: 0.005 µg/mL | neutralization IC50 [14]: 0.23 µg/mL | neutralization IC50 [15]: 0.014 µg/mL | neutralization IC50 [16]: > 30 µg/mL | neutralization IC50 [17]: 12.8 µg/mL

B2: NIH45-46 IgG (antibody, V domains shown)
VH: B1 VH
VL: B1 VL
neutralization IC50 [18]: 1.9 µg/mL | neutralization IC50 [19]: 0.5 µg/mL | neutralization IC50 [20]: 0.5 µg/mL | neutralization IC50 [21]: 0.7 µg/mL | neutralization IC50 [22]: > 50 µg/mL | neutralization IC50 [23]: 0.9 µg/mL | neutralization IC50 [24]: 0.05 µg/mL
